Here are results for 2 substances from PMC11098500.

Test [1] concerns the target domestic dog ACE2 ectodomain (residues 1-614), Fc-tagged (domestic dog). Description: SPR. Background: SPR reads the build-up and loss of mass on a sensor chip optically.
Test [2] deals with raccoon dog ACE2 ectodomain (residues 1-614), Fc-tagged (raccoon dog) (UniProt B4XEP4). Description: SPR.

The term Kd denotes the concentration at which binding is half-saturated. Read a low Kd as higher affinity.

Where “and” joins values, the source holds several entries; their conditions need not be identical. Identical values can stand only once.

Turning to “SARS-CoV-2 RBD (prototypic strain, residues 319-529), His-tagged (from UniProt P0DTC2 319-529) (domain or fragment)”, the Kd in test [1] was 518 nM and 524 nM and 361 nM; in test [2], 297 nM and 449 nM and 450 nM.
Take “SARS-CoV-2 RBD (residues 319-529), His-tagged (from UniProt P0DTC2 319-529) (domain or fragment)”: the Kd in test [1] amounted to 468 nM.
